Source: patent publication US20060141569A1, “Compositions and methods for the assay of G-protein coupled receptors and their ligands” (priority 2004, published 2006)

What was measured:
[1] = target: T1, CB1 receptor (Homo sapiens, UniProt P21554); assay: CB1 receptor FLIPR dose response in CB1-transfected CHEM-1 cells; assay type: cell-based; settings: pHS vector (FIG. 10D)
T1 construct: ER export signal […]; expressed in transfected cells; host or cells: CHEM-1 (RBL-2H3) cells, pHS vector
Procedure: FIG. 10D is a graph depicting the agonist-induced CB1 receptor FLIPR® dose response for CB1-transfected CHEM-1 cells using the pHS vector.
Cells (50,000/well) were seeded in a 96 well FLIPR® plate (clear bottom, black wall TC plate) the day before the experiment, and then loaded with fluorescent calcium dye Fluo-4 or Indo-1 (Molecular Probes) and incubated for 30 minutes at 37° C. in the dark with Pluronic F-127 and Probenecid in HBSS buffer (with Ca^2+ and Mg^2+). The cells were then washed twice with HBSS and read for calcium mobilization after the ligand addition on FLEX Station or FLIPR®. The loading efficiency and integrity of the Ca^2+ flux assay were assessed by comparing the signaling response to ionomycin treatment before and after each run.

[2] = target: T2, CXCR2 (Homo sapiens, UniProt P25025); assay: CXCR2 membrane radioligand (125I-Groα) competition binding; settings: two site binding curve, FIG. 8A (pcDNA3/CHO membranes); 0.5 nM 125I-Groα; matches high affinity sites of FIG. 8B
T2 construct: expressed in transfected cells; host or cells: CHO cells, pcDNA3 vector, crude membranes of stably transfected cells
T2 sequence (P25025 1-360): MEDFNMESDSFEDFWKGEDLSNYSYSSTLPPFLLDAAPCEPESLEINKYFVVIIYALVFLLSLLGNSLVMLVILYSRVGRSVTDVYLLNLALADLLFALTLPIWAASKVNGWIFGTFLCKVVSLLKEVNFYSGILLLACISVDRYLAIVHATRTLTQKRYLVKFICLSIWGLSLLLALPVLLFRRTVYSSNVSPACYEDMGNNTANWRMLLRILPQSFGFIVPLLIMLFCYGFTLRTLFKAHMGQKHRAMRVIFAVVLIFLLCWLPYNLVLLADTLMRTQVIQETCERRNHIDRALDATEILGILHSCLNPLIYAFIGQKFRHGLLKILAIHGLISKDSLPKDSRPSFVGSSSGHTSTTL
Procedure: After 2 hours of incubation at room temperature, membranes were harvested to a 96-well GF/C filter plate, dried and counted using a Microbeta counter.
1-5 μg/well of crude membrane protein was thawed and combined with 50,000 to 100,000 cpm of radioligand (2200 Ci/mmol) and cold competitors in assay buffer (50 mM Hepes, 5 mM MgCl2, 1 mM CaCl2, 0.2% BSA) for 2 hours at 25° C. Reactions were performed in 96-well GF/C glass fiber filter plates (PerkinElmer, Cat. No. 6005174, Wellesley, Mass.). Binding was terminated by adding 100 μl/well of wash buffer (50 mM Hepes, pH 7.4, 500 mM NaCl, 0.1% BSA) and aspiration through the plate on a cell harvester, followed by three 0.2 ml washes with wash buffer. The filter plate was then dried and counted on a Microbeta liquid scintillation counter (PerkinElmer, Wellesley, Mass.).

[3] = target: T2, CXCR2; assay: CXCR2 membrane radioligand (125I-Groα) saturation binding; settings: membranes of CHO cells transfected with CXCR2, pcDNA3 vector; 125I-Groα 0-2 nM (FIG. 7A)
Procedure: (§1) FIG. 7A is a graph depicting CXCR2 membrane radioligand saturation binding for membranes of CHO cells transfected with CXCR2 encoded by the mammalian expression vector pcDNA3. Specifically, 5 μg of GPCR membrane preps were incubated with increasing concentrations (0-2 nM) of ^125I-labeled ligand Groα (PerkinElmer, Wellesley, Mass.) in the absence or presence of an excess amount of cold ligand Groα.
as §1, with “7B” for “7A”, “CHEM-1” for “CHO”, “the” for “the mammalian”, “pHS.” for “pcDNA3.”, “preparation was” for “preps were”
1-5 μg/well of crude membrane protein was thawed and combined with 50,000 to 100,000 cpm of radioligand (2200 Ci/mmol) and cold competitors in assay buffer (50 mM Hepes, 5 mM MgCl2, 1 mM CaCl2, 0.2% BSA) for 2 hours at 25° C. Reactions were performed in 96-well GF/C glass fiber filter plates (PerkinElmer, Cat. No. 6005174, Wellesley, Mass.). […] The filter plate was then dried and counted on a Microbeta liquid scintillation counter (PerkinElmer, Wellesley, Mass.). […]

T1 sequence (P21554 whole entry): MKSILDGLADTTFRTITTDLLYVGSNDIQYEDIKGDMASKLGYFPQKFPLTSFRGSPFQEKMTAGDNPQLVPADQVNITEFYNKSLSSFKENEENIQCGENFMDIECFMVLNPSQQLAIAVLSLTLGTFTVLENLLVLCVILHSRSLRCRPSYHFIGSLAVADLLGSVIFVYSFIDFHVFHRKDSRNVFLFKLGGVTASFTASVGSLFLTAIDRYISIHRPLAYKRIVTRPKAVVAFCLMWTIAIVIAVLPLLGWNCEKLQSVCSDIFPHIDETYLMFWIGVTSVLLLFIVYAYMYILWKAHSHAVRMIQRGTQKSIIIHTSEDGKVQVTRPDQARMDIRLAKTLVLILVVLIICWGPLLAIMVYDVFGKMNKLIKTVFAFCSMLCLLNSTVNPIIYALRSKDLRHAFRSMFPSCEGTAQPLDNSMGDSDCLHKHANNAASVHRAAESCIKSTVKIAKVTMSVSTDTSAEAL

Row | Compound | agonist type (efficacy) in FLIPR dose response [1] | Ki [2] [pM] | Kd [3] [pM]
1 | CCCCCCC(C)(C)c1ccc([C@@H]2C[C@H](O)CC[C@H]2CCCO)c(O)c1 [CP55940] | partial agonists | – | –
2 | Groα | – | 220 | 148
